Measured values published in article PMC9723947, “Ornate, large, extremophilic (OLE) RNA forms a kink turn necessary for OapC protein recognition and RNA function”.

How the values were obtained:
[1] = biological target: T1, YbxF/OapC WT (Bacillus halodurans C-125) (UniProt Q9Z9M0); assay: filter binding; conditions: Filter binding: 20 mM Tris-HCl pH 7.5, 150 mM NaCl, 10 mM MgCl2, 1 mM TCEP, ~20 C, 15 min, ~10 pM RNA
T1 sequence: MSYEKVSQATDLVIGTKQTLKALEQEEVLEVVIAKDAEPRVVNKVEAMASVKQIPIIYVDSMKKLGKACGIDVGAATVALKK

[2] = biological target: T1, YbxF/OapC WT (Bacillus halodurans C-125); assay: footprinting (in-line probing); conditions: Filter binding: 20 mM Tris-HCl pH 7.5, 150 mM NaCl, 10 mM MgCl2, 1 mM TCEP, ~20 C, 15 min, ~10 pM RNA
YbxF/OapC WT [3] = biological target: T2, YbxF/OapC WT (Bacillus halodurans C-125, UniProt Q9Z9M0 1-82); assay: filter binding; Filter binding: 20 mM Tris-HCl pH 7.5, 150 mM NaCl, 10 mM MgCl2, 1 mM TCEP, ~20 C, 15 min, ~10 pM RNA; conditions: protein: recombinant, tags: N-terminal His6 + PreScission (3C) site, label: 5' 32P
T2 sequence: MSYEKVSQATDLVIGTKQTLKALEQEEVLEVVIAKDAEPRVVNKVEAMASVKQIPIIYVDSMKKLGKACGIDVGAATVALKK

YbxF/OapC WT [4] = biological target: T2, YbxF/OapC WT; assay: filter binding; no binding at 1 uM or higher protein; Filter binding: 20 mM Tris-HCl pH 7.5, 150 mM NaCl, 10 mM MgCl2, 1 mM TCEP, ~20 C, 15 min, ~10 pM RNA; conditions: protein: recombinant; tags: N-terminal His6 + PreScission (3C) site; label: 5' 32P; hairpin

In the case of “GGCACAUCGAUGAAGCUCCUUGUGAUGGCUUGAGGCGCCCAGCCUUGGGUCAUUGCUGGGAGAAAAGGUAGUAGGGCGAUCCACAAAGGCAUGUGGGCGAUGACCCUCCUACUGUGGAGGCCUUUUUCUCUGCUGCUUAUGUAUGGACAUAGG [OLE78-230]”, the binding [1] is reported as “binds more weakly”.

In the case of “GGCACAUCGAUGAAGCUCCUUGUGAUGGCUUGAGGCGCCCAGCCUUGGGUCAUUGCUGGGAGAAAAGGUAGUAGGGCGAUCCACAAAGGCAUGUGGGCGAUGACCCUCCUACUGUGGAGGCCUUUUUCUCUGCUGCUUAUGUAUGGACAUAGGGCAAGAGCAAAGGGUAUGAACCUGCGAAGGCAAGCUAGGGAGCUUGUCAGCAGCGUAGCC [OLE78-290]”, the binding [1] is reported as “binds” and the binding [2] is reported as “binds”.

“GGCAUUUAAAGAGGAUUACAGUGUGGACUAAGUGGUAAUCCAGUCUGGCGUUUGGUGACAGCGCCAAGUUCAACAUAAAGGGAAACCGCCAGCGCGGCGACGCACUGGUGUUGAAUUGGGAAAUCCUACUGGACCUAAGCCACAGAGUUUACUCUUUAAAUG [OLE449-608]” was tested, and the binding [1] was “no binding”.

With “GGCCUUGAGUGGAGUAGAGGGGAUUAUGGGUUUUGAAGCAAUCCGCUGUCGGCCAACAGCCAUUGCCUCUCUAGUACCAUAUGAAAUCUGCUCUGCAAAAGAG [OLE293-394]” the binding [1] was “no binding”.

GGAUCGAUGAAGCUCCCGAAAGGGAGAAAAGGUA (structured_RNA) [OLE k-turn WT]: binds (YbxF/OapC WT [3]; hairpin with k-turn).

GGAUAGAUGAAGCUCCCGAAAGGGAGAAAAGGUA (structured_RNA) [OLE k-turn C85A]: no binding (YbxF/OapC WT [4]).

GGACCGAUGAAGCUCCCGAAAGGGAGAAAAGGUA (structured_RNA) [OLE k-turn U84C]: binds (YbxF/OapC WT [3]; hairpin with k-turn).

B1: OLE83-147 (structured_RNA)
RNA: GGAUCGAUGAAGCUCCUUGUGAUGGCUUGAGGCGCCCAGCCUUGGGUCAUUGCUGGGAGAAAAGGUA
B1: binds (YbxF/OapC WT [3]).
